1 molecule from PMC10148413, “Caf1 regulates the histone methyltransferase activity of Ash1 by sensing unmodified histone H3” (Epigenetics & Chromatin, 2023) can be followed below.

Assay [1] concerns the target T1, Fly Caf1 wild-type (fly, UniProt Q24572 1-430).
T1 construct: Caf1 (p55/Nurf55), fly; The same paragraph speaks of 'full-length Caf1' for the AMC co-expression; probably full length here too; also called p55; Nurf55; source: Sf9 cells (baculovirus), purified (Ni-NTA, HiTrap Q HP, Superdex 200); not shown: His6, N-terminal, cleaved
Description: pull-down; GST-Ash1 fragments held on GST resin; 200 µL of 0.1 mg/mL purified Caf1 added for 1 h; 150 mM NaCl, 50 mM Tris-HCl (8.0); bound proteins analysed by SDS-PAGE. The note with it: both partners purified.

The target in assay [2] is T2, Fly Caf1 H3 binding pocket mutant (E235Q/D252K/E279Q) (fly, UniProt Q24572 1-430, E235Q | D252K | E279Q).
T2 construct: In the functional row this mutant stood as a subunit of the AMC complex (AMC mut); source: Sf9 cells (baculovirus), purified (Ni-NTA, HiTrap Q HP, Superdex 200); not shown: His6, N-terminal, cleaved
T2 sequence (Q24572 whole entry E235Q/D252K/E279Q): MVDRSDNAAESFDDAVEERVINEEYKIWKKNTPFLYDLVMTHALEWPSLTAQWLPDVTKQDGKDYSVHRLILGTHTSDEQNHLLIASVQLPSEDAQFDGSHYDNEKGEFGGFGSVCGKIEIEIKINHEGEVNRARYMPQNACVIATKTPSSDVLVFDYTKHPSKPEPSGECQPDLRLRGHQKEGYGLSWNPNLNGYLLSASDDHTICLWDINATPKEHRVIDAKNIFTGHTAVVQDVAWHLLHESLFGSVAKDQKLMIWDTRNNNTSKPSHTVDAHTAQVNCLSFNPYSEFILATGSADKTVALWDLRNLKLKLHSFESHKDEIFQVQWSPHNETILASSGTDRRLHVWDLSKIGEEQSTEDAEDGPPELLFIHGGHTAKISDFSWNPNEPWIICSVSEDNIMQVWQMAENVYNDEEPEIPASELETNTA
The description is as above. The following applies: both partners purified.

T1 sequence (Q24572 whole entry): as the sequence (Q24572 whole entry E235Q/D252K/E279Q) above, with Q235E, K252D, Q279E counted along it

B1: GST-CBM (Ash1 Caf1 Binding Motif, 1582–1616) (domain or fragment, fly, UniProt Q9VW15 1582-1616, looked up)
chain: AKLQPLSEKEKKLVRQFNTFLVRNFEKIRRCKAKR
notes: Vector pGEX-4T-1; also called Ash1_C1.6; Ash1_CBM
Turning to B1, the binding result in assay [1] and in assay [2] was “binds” in each case.
